Inhibition of BttxB endoprotease activity (cleavage of VAMP2 55-94, RP-HPLC) and inhibition of BttxB activity relative to B-I (% as effective as B-I) data for 2 substances are collected here from US20050113304A1.

This assay has as its target Botulinum toxin B (UniProt P10844). Kind of assay: cell-based or functional assay.

The substance Buforin I (peptide) displayed an inhibition of BttxB endoprotease activity (cleavage of VAMP2 55-94, RP-HPLC) of 1000 nM.
Substance Buforin II (peptide) registered an inhibition of BttxB activity relative to B-I (% as effective as B-I) of 25.
